B1: feline IgG1a mutant ID No. 310: P247V, T250Q, S252H (antibody, part only; not given: variable domains and light chain, not shown: another chain or arm of the molecule; small tags and cut ends)
constant: ASTTAPSVFPLAPSCGTTSGATVALACLVLGYFPEPVTVSWNSGALTSGVHTFPAVLQASGLYSLSSMVTVPSSRWLSDTFTCNVAHPPSNTKVDKTVRKTDHPPGPKPCDCPKCPPPEMLGGPSIFIFPPKVKDQLHISRTPEVTCLVVDLGPDDSDVQITWFVDNTQVYTAKTSPREEQFNSTYRVVSVLPILHQDWLKGKEFKCKVNSKSLPSPIERTISKAKGQPHEPQVYVLPPAQEELSRNKVSVTCLIKSFHPPDIAVEWEITGQPEPENNYRTTPPQLDSDGTYFVYSKLSVDRSHWQRGNTYTCSVSHEALHSHHTQKSLTQSPGK
B2: feline IgG1a mutant ID No. 328: S428Y, D312P, S434Y, P247V, T250Q, S252H (antibody, part only; not given: Variable domains, not shown: another chain or arm of the molecule; small tags and cut ends)
constant: ASTTAPSVFPLAPSCGTTSGATVALACLVLGYFPEPVTVSWNSGALTSGVHTFPAVLQASGLYSLSSMVTVPSSRWLSDTFTCNVAHPPSNTKVDKTVRKTDHPPGPKPCDCPKCPPPEMLGGPSIFIFPPKVKDQLHISRTPEVTCLVVDLGPDDSDVQITWFVDNTQVYTAKTSPREEQFNSTYRVVSVLPILHQPWLKGKEFKCKVNSKSLPSPIERTISKAKGQPHEPQVYVLPPAQEELSRNKVSVTCLIKSFHPPDIAVEWEITGQPEPENNYRTTPPQLDSDGTYFVYSKLSVDRSHWQRGNTYTCSVYHEALHYHHTQKSLTQSPGK
B3: feline IgG1a mutant ID No. 317: S428M, A431K, S434P (antibody, part only; not given: variable domains and light chain, not shown: another chain or arm of the molecule)
constant: ASTTAPSVFPLAPSCGTTSGATVALACLVLGYFPEPVTVSWNSGALTSGVHTFPAVLQASGLYSLSSMVTVPSSRWLSDTFTCNVAHPPSNTKVDKTVRKTDHPPGPKPCDCPKCPPPEMLGGPSIFIFPPKPKDTLSISRTPEVTCLVVDLGPDDSDVQITWFVDNTQVYTAKTSPREEQFNSTYRVVSVLPILHQDWLKGKEFKCKVNSKSLPSPIERTISKAKGQPHEPQVYVLPPAQEELSRNKVSVTCLIKSFHPPDIAVEWEITGQPEPENNYRTTPPQLDSDGTYFVYSKLSVDRSHWQRGNTYTCSVMHEKLHPHHTQKSLTQSPGK
B4: feline IgG1a mutant ID No. 327: S428Y, D312P, S434Y, P247V, T250Q (antibody, part only; not given: Variable domains, not shown: another chain or arm of the molecule; small tags and cut ends)
constant: ASTTAPSVFPLAPSCGTTSGATVALACLVLGYFPEPVTVSWNSGALTSGVHTFPAVLQASGLYSLSSMVTVPSSRWLSDTFTCNVAHPPSNTKVDKTVRKTDHPPGPKPCDCPKCPPPEMLGGPSIFIFPPKVKDQLSISRTPEVTCLVVDLGPDDSDVQITWFVDNTQVYTAKTSPREEQFNSTYRVVSVLPILHQPWLKGKEFKCKVNSKSLPSPIERTISKAKGQPHEPQVYVLPPAQEELSRNKVSVTCLIKSFHPPDIAVEWEITGQPEPENNYRTTPPQLDSDGTYFVYSKLSVDRSHWQRGNTYTCSVYHEALHYHHTQKSLTQSPGK
B5: feline IgG1a mutant ID No. 332: S428Y, D312P, S434Y, Q311R, L314K (antibody, part only; not given: Variable domains, not shown: another chain or arm of the molecule; small tags and cut ends)
constant: ASTTAPSVFPLAPSCGTTSGATVALACLVLGYFPEPVTVSWNSGALTSGVHTFPAVLQASGLYSLSSMVTVPSSRWLSDTFTCNVAHPPSNTKVDKTVRKTDHPPGPKPCDCPKCPPPEMLGGPSIFIFPPKPKDTLSISRTPEVTCLVVDLGPDDSDVQITWFVDNTQVYTAKTSPREEQFNSTYRVVSVLPILHRPWKKGKEFKCKVNSKSLPSPIERTISKAKGQPHEPQVYVLPPAQEELSRNKVSVTCLIKSFHPPDIAVEWEITGQPEPENNYRTTPPQLDSDGTYFVYSKLSVDRSHWQRGNTYTCSVYHEALHYHHTQKSLTQSPGK
B6: feline IgG1a mutant ID No. 318: S428M, A431K, S434Y (antibody, part only; not given: Variable domains, not shown: another chain or arm of the molecule)
constant: ASTTAPSVFPLAPSCGTTSGATVALACLVLGYFPEPVTVSWNSGALTSGVHTFPAVLQASGLYSLSSMVTVPSSRWLSDTFTCNVAHPPSNTKVDKTVRKTDHPPGPKPCDCPKCPPPEMLGGPSIFIFPPKPKDTLSISRTPEVTCLVVDLGPDDSDVQITWFVDNTQVYTAKTSPREEQFNSTYRVVSVLPILHQDWLKGKEFKCKVNSKSLPSPIERTISKAKGQPHEPQVYVLPPAQEELSRNKVSVTCLIKSFHPPDIAVEWEITGQPEPENNYRTTPPQLDSDGTYFVYSKLSVDRSHWQRGNTYTCSVMHEKLHYHHTQKSLTQSPGK
B7: feline IgG1a mutant ID No. 319: S428Y, D312P, A431K, S434P (antibody, part only; not given: variable domains, not shown: another chain or arm of the molecule)
constant: ASTTAPSVFPLAPSCGTTSGATVALACLVLGYFPEPVTVSWNSGALTSGVHTFPAVLQASGLYSLSSMVTVPSSRWLSDTFTCNVAHPPSNTKVDKTVRKTDHPPGPKPCDCPKCPPPEMLGGPSIFIFPPKPKDTLSISRTPEVTCLVVDLGPDDSDVQITWFVDNTQVYTAKTSPREEQFNSTYRVVSVLPILHQPWLKGKEFKCKVNSKSLPSPIERTISKAKGQPHEPQVYVLPPAQEELSRNKVSVTCLIKSFHPPDIAVEWEITGQPEPENNYRTTPPQLDSDGTYFVYSKLSVDRSHWQRGNTYTCSVYHEKLHPHHTQKSLTQSPGK
B8: feline IgG1a mutant ID No. 333: S428Y, D312P, S434Y, Q311Y, L314K (antibody, part only; not given: Variable domains, not shown: another chain or arm of the molecule; small tags and cut ends)
constant: ASTTAPSVFPLAPSCGTTSGATVALACLVLGYFPEPVTVSWNSGALTSGVHTFPAVLQASGLYSLSSMVTVPSSRWLSDTFTCNVAHPPSNTKVDKTVRKTDHPPGPKPCDCPKCPPPEMLGGPSIFIFPPKPKDTLSISRTPEVTCLVVDLGPDDSDVQITWFVDNTQVYTAKTSPREEQFNSTYRVVSVLPILHYPWKKGKEFKCKVNSKSLPSPIERTISKAKGQPHEPQVYVLPPAQEELSRNKVSVTCLIKSFHPPDIAVEWEITGQPEPENNYRTTPPQLDSDGTYFVYSKLSVDRSHWQRGNTYTCSVYHEALHYHHTQKSLTQSPGK
B9: feline IgG1a mutant ID No. 326: S428Y, D312P, S434Y, P247V, S252H (antibody, part only; not given: Variable domains, not shown: another chain or arm of the molecule; small tags and cut ends)
constant: ASTTAPSVFPLAPSCGTTSGATVALACLVLGYFPEPVTVSWNSGALTSGVHTFPAVLQASGLYSLSSMVTVPSSRWLSDTFTCNVAHPPSNTKVDKTVRKTDHPPGPKPCDCPKCPPPEMLGGPSIFIFPPKVKDTLHISRTPEVTCLVVDLGPDDSDVQITWFVDNTQVYTAKTSPREEQFNSTYRVVSVLPILHQPWLKGKEFKCKVNSKSLPSPIERTISKAKGQPHEPQVYVLPPAQEELSRNKVSVTCLIKSFHPPDIAVEWEITGQPEPENNYRTTPPQLDSDGTYFVYSKLSVDRSHWQRGNTYTCSVYHEALHYHHTQKSLTQSPGK
B10: feline IgG1a mutant ID No. 321: S428Y, D312P, S434Y, A431K (antibody, part only; not given: Variable domains, not shown: another chain or arm of the molecule)
constant: ASTTAPSVFPLAPSCGTTSGATVALACLVLGYFPEPVTVSWNSGALTSGVHTFPAVLQASGLYSLSSMVTVPSSRWLSDTFTCNVAHPPSNTKVDKTVRKTDHPPGPKPCDCPKCPPPEMLGGPSIFIFPPKPKDTLSISRTPEVTCLVVDLGPDDSDVQITWFVDNTQVYTAKTSPREEQFNSTYRVVSVLPILHQPWLKGKEFKCKVNSKSLPSPIERTISKAKGQPHEPQVYVLPPAQEELSRNKVSVTCLIKSFHPPDIAVEWEITGQPEPENNYRTTPPQLDSDGTYFVYSKLSVDRSHWQRGNTYTCSVYHEKLHYHHTQKSLTQSPGK
B11: feline IgG1a mutant ID No. 325: S428Y, D312P, S434Y, D401R, T403R (antibody, part only; not given: Variable domains, not shown: another chain or arm of the molecule)
constant: ASTTAPSVFPLAPSCGTTSGATVALACLVLGYFPEPVTVSWNSGALTSGVHTFPAVLQASGLYSLSSMVTVPSSRWLSDTFTCNVAHPPSNTKVDKTVRKTDHPPGPKPCDCPKCPPPEMLGGPSIFIFPPKPKDTLSISRTPEVTCLVVDLGPDDSDVQITWFVDNTQVYTAKTSPREEQFNSTYRVVSVLPILHQPWLKGKEFKCKVNSKSLPSPIERTISKAKGQPHEPQVYVLPPAQEELSRNKVSVTCLIKSFHPPDIAVEWEITGQPEPENNYRTTPPQLDSRGRYFVYSKLSVDRSHWQRGNTYTCSVYHEALHYHHTQKSLTQSPGK
B12: feline IgG1a mutant ID No. 331: S428Y, D312P, S434Y, Q311M, L314K (antibody, part only; not given: Variable domains, not shown: another chain or arm of the molecule; small tags and cut ends)
constant: ASTTAPSVFPLAPSCGTTSGATVALACLVLGYFPEPVTVSWNSGALTSGVHTFPAVLQASGLYSLSSMVTVPSSRWLSDTFTCNVAHPPSNTKVDKTVRKTDHPPGPKPCDCPKCPPPEMLGGPSIFIFPPKPKDTLSISRTPEVTCLVVDLGPDDSDVQITWFVDNTQVYTAKTSPREEQFNSTYRVVSVLPILHMPWKKGKEFKCKVNSKSLPSPIERTISKAKGQPHEPQVYVLPPAQEELSRNKVSVTCLIKSFHPPDIAVEWEITGQPEPENNYRTTPPQLDSDGTYFVYSKLSVDRSHWQRGNTYTCSVYHEALHYHHTQKSLTQSPGK
B13: feline IgG1a mutant ID No. 324: S428Y, D312P, S434Y, D399M, T403R (antibody, part only; not given: Variable domains, not shown: another chain or arm of the molecule)
constant: ASTTAPSVFPLAPSCGTTSGATVALACLVLGYFPEPVTVSWNSGALTSGVHTFPAVLQASGLYSLSSMVTVPSSRWLSDTFTCNVAHPPSNTKVDKTVRKTDHPPGPKPCDCPKCPPPEMLGGPSIFIFPPKPKDTLSISRTPEVTCLVVDLGPDDSDVQITWFVDNTQVYTAKTSPREEQFNSTYRVVSVLPILHQPWLKGKEFKCKVNSKSLPSPIERTISKAKGQPHEPQVYVLPPAQEELSRNKVSVTCLIKSFHPPDIAVEWEITGQPEPENNYRTTPPQLMSDGRYFVYSKLSVDRSHWQRGNTYTCSVYHEALHYHHTQKSLTQSPGK
B14: feline IgG1a mutant ID No. 329: S428Y, D312P, S434Y, Q311H, L314K (antibody, part only; not given: Variable domains, not shown: another chain or arm of the molecule; small tags and cut ends)
constant: ASTTAPSVFPLAPSCGTTSGATVALACLVLGYFPEPVTVSWNSGALTSGVHTFPAVLQASGLYSLSSMVTVPSSRWLSDTFTCNVAHPPSNTKVDKTVRKTDHPPGPKPCDCPKCPPPEMLGGPSIFIFPPKPKDTLSISRTPEVTCLVVDLGPDDSDVQITWFVDNTQVYTAKTSPREEQFNSTYRVVSVLPILHHPWKKGKEFKCKVNSKSLPSPIERTISKAKGQPHEPQVYVLPPAQEELSRNKVSVTCLIKSFHPPDIAVEWEITGQPEPENNYRTTPPQLDSDGTYFVYSKLSVDRSHWQRGNTYTCSVYHEALHYHHTQKSLTQSPGK
B15: feline IgG1a mutant ID No. 316: S428M, A431K (antibody, part only; not given: Variable domains, not shown: another chain or arm of the molecule)
constant: ASTTAPSVFPLAPSCGTTSGATVALACLVLGYFPEPVTVSWNSGALTSGVHTFPAVLQASGLYSLSSMVTVPSSRWLSDTFTCNVAHPPSNTKVDKTVRKTDHPPGPKPCDCPKCPPPEMLGGPSIFIFPPKPKDTLSISRTPEVTCLVVDLGPDDSDVQITWFVDNTQVYTAKTSPREEQFNSTYRVVSVLPILHQDWLKGKEFKCKVNSKSLPSPIERTISKAKGQPHEPQVYVLPPAQEELSRNKVSVTCLIKSFHPPDIAVEWEITGQPEPENNYRTTPPQLDSDGTYFVYSKLSVDRSHWQRGNTYTCSVMHEKLHSHHTQKSLTQSPGK

Assays:
[1] = target: feline FcRn complex (FcRn-α subunit and β-microglobulin) (feline); test: SPR (Biacore), FcRn on SA chip, pH 7.4
[2] = target: feline FcRn complex (FcRn-α subunit and β-microglobulin) (feline); test: SPR (Biacore), FcRn on SA chip, pH 6

| Binder | Kd [1] [nM] | Kd [2] [nM] |
| --- | --- | --- |
| B1 | 24.4 | 8.21 |
| B2 | 8.68 | 0.0418 |
| B3 | 15.6 | 22.2 |
| B4 | 27.4 | 0.221 |
| B5 | 28.6 | 0.332 |
| B6 | 25.3 | 0.135 |
| B7 | 1080 | 6.96 |
| B8 | 25.9 | 0.908 |
| B9 | 13.7 | 0.0627 |
| B10 | 10.2 | 0.0539 |
| B11 | 11.1 | 0.0072 |
| B12 | 14.6 | 0.259 |
| B13 | 21.6 | 0.113 |
| B14 | 18.9 | 0.338 |
| B15 | 2420 | 4.87 |
